The values that follow come from publication PMC7793260, “MreC and MreD balance the interaction between the elongasome proteins PBP2 and RodA” (PLoS Genetics, 2020).

Numbering of substitutions follows the chain as printed.

Holding throughout (experiment): FRET or BRET; as the two-plasmid FRET, cells treated with mecillinam (2 mg/L) for two mass doublings
Holding throughout (conditions): partners not purified

Assay [1] addresses T1, PBP2 (wild type), fused to mKO or to mCherry (E. coli, UniProt P0AD65 1-633).
T1 construct: PBP2, peptidoglycan transpeptidase of the E. coli elongasome, wild type; mKO-PBP2 in all others; also called mKO-PBP2^WT; mKO-PBP2; source: E. coli LMC500, expressed from plasmid (15 uM IPTG), in fixed cells; not shown: mKO (donor construct, pWA004) or mCherry (acceptor construct), N-terminal, kept
T1 sequence (looked up): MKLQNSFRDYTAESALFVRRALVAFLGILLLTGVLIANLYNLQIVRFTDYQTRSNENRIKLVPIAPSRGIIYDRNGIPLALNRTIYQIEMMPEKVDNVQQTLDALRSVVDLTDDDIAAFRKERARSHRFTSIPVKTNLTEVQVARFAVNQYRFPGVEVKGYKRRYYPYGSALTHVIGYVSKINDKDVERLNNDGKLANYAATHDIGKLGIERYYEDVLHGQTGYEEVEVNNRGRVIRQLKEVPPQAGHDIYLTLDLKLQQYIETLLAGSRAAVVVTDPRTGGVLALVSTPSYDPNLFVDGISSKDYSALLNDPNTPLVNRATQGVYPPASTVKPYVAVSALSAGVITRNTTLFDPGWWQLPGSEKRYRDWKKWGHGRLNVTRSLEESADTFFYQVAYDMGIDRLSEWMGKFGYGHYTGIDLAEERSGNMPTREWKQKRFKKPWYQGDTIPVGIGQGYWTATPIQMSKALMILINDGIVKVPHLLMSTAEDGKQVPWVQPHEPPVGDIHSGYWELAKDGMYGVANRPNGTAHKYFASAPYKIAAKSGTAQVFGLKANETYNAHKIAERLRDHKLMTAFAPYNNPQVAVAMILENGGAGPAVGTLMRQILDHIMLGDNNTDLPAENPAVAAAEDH

Another assay addresses T2, mKO-PBP2^L61R (E. coli, UniProt P0AD65 1-633, L61R).
T2 construct: PBP2 of E. coli with L61R (hyperactive variant); made from pWA004 by mutagenesis PCR; also called hyperactive PBP2^L61R; source: E. coli LMC500, expressed from plasmid (15 uM IPTG), in fixed cells; not shown: mKO, N-terminal, kept
T2 sequence (looked up): T1 sequence (looked up) with L61R

For another assay, the target named is T3, mKO-^MalF37PBP2 (E. coli, UniProt P02916 1-37; P0AD65 46-633).
T3 construct: MalF of E. coli, the first 37 residues (cytoplasmic N-terminus and transmembrane helix), amplified from the MG1655 genome; PBP2 of E. coli excluding the first 45 residues (NT and TMH removed, periplasmic domain kept); also called PBP2 with the NT and TMH of MalF; source: E. coli LMC500, expressed from plasmid (15 uM IPTG), in fixed cells; not shown: mKO, N-terminal, kept
T3 chain (looked up): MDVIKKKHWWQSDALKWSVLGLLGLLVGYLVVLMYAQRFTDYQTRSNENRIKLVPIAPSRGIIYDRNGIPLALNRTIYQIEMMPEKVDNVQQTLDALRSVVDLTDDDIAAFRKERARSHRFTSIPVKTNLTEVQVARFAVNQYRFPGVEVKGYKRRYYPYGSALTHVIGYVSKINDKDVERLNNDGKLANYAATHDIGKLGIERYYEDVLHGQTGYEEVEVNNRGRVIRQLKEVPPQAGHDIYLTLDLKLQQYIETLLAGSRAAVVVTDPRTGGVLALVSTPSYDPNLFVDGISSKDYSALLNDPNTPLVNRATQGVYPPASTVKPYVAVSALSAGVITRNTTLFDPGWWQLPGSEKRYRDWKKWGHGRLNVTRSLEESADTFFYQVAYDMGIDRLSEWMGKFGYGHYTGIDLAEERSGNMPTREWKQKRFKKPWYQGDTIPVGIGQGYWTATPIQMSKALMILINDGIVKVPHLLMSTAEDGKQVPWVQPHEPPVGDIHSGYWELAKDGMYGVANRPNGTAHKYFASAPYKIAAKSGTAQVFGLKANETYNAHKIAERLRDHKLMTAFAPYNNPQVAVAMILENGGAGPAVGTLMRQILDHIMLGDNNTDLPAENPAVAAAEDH

B1: RodA (wild type), fused to mCherry or to mKO (enzyme, E. coli, UniProt P0ABG7 1-370, looked up)
chain: MTDNPNKKTFWDKVHLDPTMLLILLALLVYSALVIWSASGQDIGMMERKIGQIAMGLVIMVVMAQIPPRVYEGWAPYLYIICIILLVAVDAFGAISKGAQRWLDLGIVRFQPSEIAKIAVPLMVARFINRDVCPPSLKNTGIALVLIFMPTLLVAAQPDLGTSILVALSGLFVLFLSGLSWRLIGVAVVLVAAFIPILWFFLMHDYQRQRVMMLLDPESDPLGAGYHIIQSKIAIGSGGLRGKGWLHGTQSQLEFLPERHTDFIFAVLAEELGLVGILILLALYILLIMRGLWIAARAQTTFGRVMAGGLMLILFVYVFVNIGMVSGILPVVGVPLPLVSYGGSALIVLMAGFGIVMSIHTHRKMLSKSV
notes: RodA, peptidoglycan glycosyltransferase of the E. coli elongasome; wild-type rodA gene; mCh-RodA in all others; also called mCh-RodA; mKO-RodA; source: E. coli LMC500, expressed from plasmid (15 uM IPTG), in fixed cells; not shown: mCherry (acceptor construct, pSAV047-RodA) or mKO (donor construct, pXL56), N-terminal, kept
In the case of B1, the “EfA (acceptor FRET efficiency)” value was 7.9% in assay [1], 6.3% with mKO-PBP2^L61R and 3% in the assay with mKO-^MalF37PBP2.
